This is an account of results in the nanobody polyreactivity screen of Harvey et al. (2022).

The nature of the data set: yeast display, Sf9 membrane polyspecificity reagent, FACS + sequencing; frameworks hold sequencing errors. Put shortly: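 Galactose-induced (36–48 hours) yeast carrying a synthetic nanobody display library were exposed to 10% biotinylated, detergent-solubilized Sf9 membrane reagent at 4 °C for 1 hour. FACS followed streptavidin microbead enrichment, using low and high (top ~1%) gates for expression (anti-HA) and reagent binding (streptavidin). Colony PCR, MiSeq 2 × 250 sequencing and CDR-length filtering followed. Labels for polyreactivity reflect the gate of origin.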
For the sequence “QVQLVESGGGLVQAGGSLRLSCAASGRIFDDNAMGWYRQAPGKERELVADINNGTSTNYADSVKGRFTISRDNAKNTVYLQMNSLKPEDTAVYYCAADDYIYYRILGDSFVYKAYGYWGQGTQVTVSS”, the “polyreactivity (PSR sort gate)” value was “low polyreactivity”. With “QVQLVESGGGLVQAGGSLRLSCAASGRIFDEYALGWYRQAPGKEREFVAAITYSAGSTYYADSVKGRFTISRDNAKNTVYLQMNSLKPEDTAVYDCAADRYYWWWYTYNYWGQGTQVTVSS”, the “polyreactivity (PSR sort gate)” value was “low polyreactivity”.

As for “QVQLVESGGGLVQAGGSLRLSCAASGRIFDEYAMGWYRQAPGKERELVAAITSDGTTNYADSVKGRFTISRDNAKNTVYLQMNSLKPEDTAVYYCNAARPQSEPASQLDLYGYDYWGQGTQVTVSS”, the “polyreactivity (PSR sort gate)” value is “low polyreactivity”. For “QVQLVESGGGLVQAGGSLRLSCAASGRIFDFNAMGWYRQAPGKERELVAAITWSGTSTYYADSVKGRFTISRDNAKNTVYLQMNSLKPEDTAVYYCAVDYSPWWAFSYSDYYYWGQGTQVTVSS”, the “polyreactivity (PSR sort gate)” value was “high polyreactivity”.

On to “QVQLVESGGGLVQAGGSLRLSCAASGRIFDFYAMGWYRQAPGKERELVAAISWDGSDTYYADSVKGRFTISRDNAKNTVYLQMNSLKPEDTAVYYCAADYYSPSGQEYNYWGQGTQVTVSS”, for which the “polyreactivity (PSR sort gate)” value was “high polyreactivity”. As to “QVQLVESGGGLVQAGGSLRLSCAASGRIFDGNALGWYRKAPGKERELFAAISWTGGSTYYADSVKGRYTISRDNAKNTVYLQLNSLKPEDTAVYYCAADSGWWLDQLSWYDYWGQGTQVTVSS”, the “polyreactivity (PSR sort gate)” value is on record as “low polyreactivity”. For “QVQLVESGGGLVQAGGSLRLSCAASGRIFDGNAMGWYRQAPGKERELVAAISRIGGTYYADSVKGRFTISRDNAKNTVYLQMNSLKPEDTAVYYCAADPSSVGYHVEYDYWGQGTQVTVSS”, the “polyreactivity (PSR sort gate)” value is reported as “low polyreactivity”. In the case of “QVQLVESGGGLVQAGGSLRLSCAASGRIFDGNAMGWYRQAPGKERELVATITRGGRTNYADSVKGRFTISRDNAKNTVYLQMNSLKPEDTAVYYCNARGSERVDTYSLYDYWGQGTQVTVSS”, the “polyreactivity (PSR sort gate)” value is listed as “low polyreactivity”. As for “QVQLVESGGGLVQAGGSLRLSCAASGRIFDGNVMGWYRQAPGKERELVAAISRSGVRTYYADSVKGRFTISRDNAKKTVYLQMNSLKPEDTAVYYCAADVYRQFYPFKSDYWGQGTQVTVSS”, the “polyreactivity (PSR sort gate)” value is listed as “high polyreactivity”.

As for “QVQLVESGGGLVQAGGSLRLSCAASGRIFDIYAMGWYRQAPGKERELVAAIDESGGSTYYADSVKGRFTISRDNAKNTVYLQMNSLKPEDTAVYYCATDDTWTISYGWYWFTYEYWGQGTQVTVSS”, the “polyreactivity (PSR sort gate)” value was “low polyreactivity”. Consider “QVQLVESGGGLVQAGGSLRLSCAASGRIFDIYAMGWYRQAPGKERELVAAITNSGVSTYYADSVKGRFTISRDNAKNTVYLQMNSLKPEDTAVYYCNAGDFERAVVVFIQHGGYYWGQGTQVTVSS”, for which the “polyreactivity (PSR sort gate)” value is recorded as “low polyreactivity”. The result for “QVQLVESGGGLVQAGGSLRLSCAASGRIFDIYAMGWYRQAPGKERELVAGITSVGSTNYADSVKGRFTISRDNAKNTVYLQMNSLKPEDTAFYYCAADTSVHSEVDYWGQGTQGTVSS” reads “low polyreactivity”; that for “QVQLVESGGGLVQAGGSLRLSCAASGRIFDKNAMGWYRQAPGKERELVAAINRSGGRTYYADSVKGRFTISRDNAKNTVYLQMNSLKPEDTAVYYCAADTQGSRYDYWGQGTQVTVSS”, “high polyreactivity”; that for “QVQLVESGGGLVQAGGSLRLSCAASGRIFDLNAMGWYRQAPGKERELVAAITWSGDSTYYADSVKGRFTISRDNAKNTVYLQMNSLKPEDTAVYYCAAASRTSYSWVDYEFDYWGQGTQVTVSS”, “low polyreactivity”. Regarding “QVQLVESGGGLVQAGGSLRLSCAASGRIFDLYAMGWYRQAPGKERELVASITTIGGRTYYADSVKGRFTISRDNAKNTVYLQMNSLKPEDTAVYYCAKSRWLYTTRSGYDYWGQGTQVTVSS”, the “polyreactivity (PSR sort gate)” value is on record as “high polyreactivity”. For “QVQLVESGGGLVQAGGSLRLSCAASGRIFDLYTMGWYRQAPGKERELVAAIRWSDGSTYYADSVKGRFTISRDNAKNTVYLQMNSLKPEDTAVYYCATDTAILINFVLYDYWGQGTQVTVSL”, the “polyreactivity (PSR sort gate)” value is “low polyreactivity”.

Take “QVQLVESGGGLVQAGGSLRLSCAASGRIFDNYGMGWYRQAPGKERELVAAISSGGGRYYADSVTGRFTISRDNAKNTVYFQMHSLKPEDTAVYYCAKDPKYHLSGGYDYWGQGTQVTVSS”: the “polyreactivity (PSR sort gate)” value is recorded as “low polyreactivity”. In the case of “QVQLVESGGGLVQAGGSLRLSCAASGRIFDNYGMGWYRQAPGKERELVAAISSGGGTYYADSVKGRFTISRDNAKNTVYLQMNSLKPEDTAVYYCAKRRVYDRSFGRYDYWGQGTQVTVSS”, the “polyreactivity (PSR sort gate)” value is reported as “low polyreactivity”. For “QVQLVESGGGLVQAGGSLRLSCAASGRIFDNYVMGWYRQAPGKERELVAAISSGGGTYYADSVKGRFTISRDNAKNTVYLQMNSLKPEDTAVYYCAKRRVYDRSFGRYDYCGQGTQVTVSS”, the “polyreactivity (PSR sort gate)” value is given as “low polyreactivity”. Take “QVQLVESGGGLVQAGGSLRLSCAASGRIFDNYVMGWYRQAPGKERELVAAISSGGGTYYADSVKGRFTISRDNAKNTVYVQMNSLKPEDTAVYYCAKRRVYDRSFGRYDYWGQGTQVTVSS”: the “polyreactivity (PSR sort gate)” value is listed as “low polyreactivity”. The result for “QVQLVESGGGLVQAGGSLRLSCAASGRIFDPNVMGWYRQAPGKERELVAAIRTSGGRTYYADSVKGRFTISRDNAKNTVYLQMHSLKPEDTAVYYCAKVNRAFPKYLIYGYWGQGTQVTVSS” reads “high polyreactivity”; that for “QVQLVESGGGLVQAGGSLRLSCAASGRIFDPYAMGWYRQAPGKERELVAAIDWSDGGTYYADSVKGRFTISRDNAKNTVYLQMNSLKPEDTAVYYCAADLLDISYYDGMDYWGQGTQVTVSS”, “low polyreactivity”.

Regarding “QVQLVESGGGLVQAGGSLRLSCAASGRIFDQNAMGWYRQAPGKDRELVAAISSSGGRTYYADSVKGRFTISRDNAKNPVYLQMNSLKPEDTAVYYCNKDRTVTTYEYWGQGTQVTVSS”, the “polyreactivity (PSR sort gate)” value is on record as “high polyreactivity”. The result for “QVQLVESGGGLVQAGGSLRLSCAASGRIFDRKAMGWYRQAPGKERELVAAISSRDGSTYYADSVKGRFTISRDNAKNTVYLQMNSLKPEDTGVYYCNRVSRGPVGGYYWGQGTQVTVSS” reads “high polyreactivity”; that for “QVQLVESGGGLVQAGGSLRLSCAASGRIFDRNAMGWYRQAPGKERELVAAIDDSGGDTSYADSVKGRFTISRDNAKNTVYLQMNSLKPEDTAVYYCNAGYADFVTYPRYYYWGQGTQVTVSS”, “low polyreactivity”; that for “QVQLVESGGGLVQAGGSLRLSCAASGRIFDRYAIGWYRHAPGKERELVAAITSGGDTNYADSVKGRFTISRDNAKITVYLPKNSLKPEDTAVYYCNTRLVLGGGRRHDYWGQGTQVTVSS”, “low polyreactivity”. The result for “QVQLVESGGGLVQAGGSLRLSCAASGRIFDRYALGWYRQAPGTERELVAVISQSGGRTYYADSVKGRFTISRDNAKNTVYLEMNSLKPEDSAVYYCNKRYRNRYSYSEGDYWGQGTQVTVSS” reads “high polyreactivity”; that for “QVQLVESGGGLVQAGGSLRLSCAASGRIFDSYAMGWYRQAPGKERELVATISWDSASTYYADSVKGRFTISRDYAKNTVYLQMNSLKPEDTAVYYCAAGGSSSWAFNYWGQGTQVTVSS”, “low polyreactivity”. In the case of “QVQLVESGGGLVQAGGSLRLSCAASGRIFDVNAMGWYRQAPGKERELVAAINKSGGTTYYADSVKGRFTISRDNAKNTVYLQMYSLKPEDTAVYYCAADSYSSRYDYWGQGTQVTVSS”, the “polyreactivity (PSR sort gate)” value is on record as “high polyreactivity”.

Take “QVQLVESGGGLVQAGGSLRLSCAASGRIFDVNAMGWYRQAPGKERELVAAITDSDGSTYYADSVKGRFTISRDNAKNTVYLQMNSLKPEDTAVYYCAATQEPVTPQPYGYWGQATQVTVSS”: the “polyreactivity (PSR sort gate)” value is given as “low polyreactivity”.

Regarding “QVQLVESGGGLVQAGGSLRLSCAASGRIFDYNAMRRYRQAPGKERELVAAINSGGSTYADSVKGRFTISRDNAKNTVYLQMNSLKPEDTGVYDCAKSLGQTVWEYDSWGQGTQVTVSS”, the “polyreactivity (PSR sort gate)” value is reported as “low polyreactivity”. With “QVQLVESGGGLVQAGGSLRLSCAASGRIFDYYAMGWYRQAPGKERELVARISSSGGSTYYADSVKGRFTISRDNAKNTVYLQKNSLKPEDTAVSYCDARSPRYWLRLREYWGQGTQVTVSS”, the “polyreactivity (PSR sort gate)” value is “high polyreactivity”.

As to “QVQLVESGGGLVQAGGSLRLSCAASGRIFDYYAMGWYRQEAGKERELVARITSGGTTNYADSVKGRFTISRDNAKNTVYLQMNSLKPEDTAVYYCNAQDYSDPLQMDYWGQCTQVTVSS”, the “polyreactivity (PSR sort gate)” value is on record as “low polyreactivity”. Regarding “QVQLVESGGGLVQAGGSLRLSCAASGRIFEDNGMGWYRQAPGKEREFVATISWDGDRTYYADSVKGRFTISRDNAKNTVYLQMNSLKPEDTAVYYCNADLPLWPVRGYEYWGQGTQVTVSS”, the “polyreactivity (PSR sort gate)” value was “low polyreactivity”.

On to “QVQLVESGGGLVQAGGSLRLSCAASGRIFEFYAMGWYRQAPGKERELVAAISFSGTSTYYADSVKGRFTISRDNAKNTVYLQMNSLKPEDTAVYYCAVRGVGADYDYWGQGTQVTVSS”, for which the “polyreactivity (PSR sort gate)” value was “low polyreactivity”. Turning to “QVQLVESGGGLVQAGGSLRLSCAASGRIFERYAMGAYRQAPGKERELVAAISVSGSGTFYADSVKGLFTISRDNAKNTVYLQMNSLKTEDTAVYYCAADASLLGLFQGYDYWGQGTQVSVSS”, the “polyreactivity (PSR sort gate)” value is reported as “low polyreactivity”. On to “QVQLVESGGGLVQAGGSLRLSCAASGRIFETNAMGWYRQAPGKERELVAVITRGGSTYYADSVKGSFTISRDNAKNTVYLQMNSLKPEVTALYYCNVRRLYGYGYYYWGQGTQVTVSW”, for which the “polyreactivity (PSR sort gate)” value is “low polyreactivity”. With “QVQLVESGGGLVQAGGSLRLSCAASGRIFEVYDMGWYRQAPGKERELVAAISESDDNTYYADSVKGRFTISRDNAKNTVYLQMNSLKPEDTAVYYCNADVPGDTGWWGFDYWGQGTQVTVSS”, the “polyreactivity (PSR sort gate)” value is on record as “low polyreactivity”. In the case of “QVQLVESGGGLVQAGGSLRLSCAASGRIFEVYTMGWYRQAPGKERELVAAIDRSTGSTYYADSVKGRFTISRDNAKNTVYLQMNSLKPEDTAVYYCAARGTFLGTRPLGRFDYWGQGTQVTVSS”, the “polyreactivity (PSR sort gate)” value was “low polyreactivity”. On to “QVQLVESGGGLVQAGGSLRLSCAASGRIFEYIAMGWYRQAPGKERELVAAITSDGSTNDADSVKGRFTISRDNAKNTVYLQMNSLNPEDTAVYYCNTRYSLYTKYAYYDEHDYWGQGTQVTVSS”, for which the “polyreactivity (PSR sort gate)” value is given as “low polyreactivity”.
